Measurements as given in the RNAGym collection of RNA variant scans (doi:10.1073/pnas.2313332121).
Variants at the floor of the assay were thinned out.

B1: TPR 5TU (parent)
chain: GGAUCUUCUCGAUCUAACAAAAAAGACAAAUCUGCCACAAAGCUUGAGAGCAUCUUCGGAUGCAGAGGCGGCAGCCUUCGGUGGCGCGAUAGCGCCAACGUUCUCAACUAUGACACGCAAAACGCGUGCUCCGUUGAAUGGAGUUUAUCAUG

Variants of: B1
Assay: polymerase ribozyme fitness, log enrichment relative to wild type (log ratio); higher = more active; in vitro selection for triplet polymerase activity
Summary of the method: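 Fitness is a logarithmic measure of how a genotype enriched relative to the wild type, with replicate averages weighted by inverse variance. The logarithm uses base 2, and enrichment came from Illumina sequencing of input and output libraries. Those libraries were PCR-built, transcribed mutants of each subunit of a heterodimeric triplet polymerase ribozyme, passed through one triplicate in vitro selection round that included frozen incubation at −7 °C, gel excision of extended constructs and streptavidin-bead capture. Genotypes were kept only if they had ≥10 input reads and ≥1 read per output.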

| Variant | polymerase ribozyme fitness (log ratio) |
| --- | --- |
| U55A A60G C99G G141C | -2.6 |
| U55A C76A G84U C116U A137U | ≤ -4.2 |
| C54G C63G C93U A115U C149G | ≤ -4.2 |
| U53A U61A C85U A97U C108U | ≤ -4.2 |
| U53C G143U | -2.74 |
| U55A C72A U139C | ≤ -4.2 |
| U55A A64G G84A C93G A137G A142U | ≤ -4.2 |
| U55A C125A G141A | -4.12 |
| U55G A89G G94A A119U | -1.9 |
| U53G A60U C69U C131G | ≤ -4.2 |
| U55A G141C | -0.199 |
| C54U U135A G136C | -3.76 |
| U55A U56A A97U | -0.565 |
| C54G G86U | -3.24 |
| C54U G84A G92U U144A | -1.38 |
| U55G G83U C95U A147C | -1.88 |
| C54G A89U C95U A97C | -2.48 |
| C54A U82C U146C | -0.537 |
| C54U C63U G94U G143A | -2.26 |
| U55C U61A U82A | -2.36 |
| U53G A97G | -1.44 |
| U53G A73G C85U G126U | -2.37 |
| U55A G92A | -2.69 |
| C54G A60G C95G | -2.44 |

| Variant | polymerase ribozyme fitness (log ratio) |
| --- | --- |
| U55A U56A G71A U82G U102G | ≤ -4.2 |
| U53G G92C C93A | ≤ -4.2 |
| C54U C85G A91U | ≤ -4.2 |
| C54A A91G A120G | -3.57 |
| U55C G62A A64C C72G G140U U144A | ≤ -4.2 |
| U55A C85A G100A A121G C131A | ≤ -4.2 |
| C54A U56A | -1.31 |
| U55G G94A | -1.43 |
| U55C C95U C103A | -1.54 |
| C54U C57U G100C | ≤ -4.2 |
| C54U U90C G94A C131U | ≤ -4.2 |
| U53G G59U C125U G141C | -3.86 |
| U55A U77G U134C U139C | ≤ -4.2 |
| U55A A66U C79U G80C C87G C116U U145G | ≤ -4.2 |
| U55A G58C A97G | 0.512 |
| C54U U55A | -0.284 |
| C54G C75U G94A | -1.51 |
| U53G C69A C99U C118A | ≤ -4.2 |
| U53C C72U C132U | -3.52 |
| C54G C75G G86U G92C G124U C125A A137C U151C | ≤ -4.2 |
| U55A G58U C93G | -3.78 |
| U55A C105G | -1.73 |
| U55A C105A | -0.692 |
| C54A C57G C87U A150G | -3.99 |

| Variant | polymerase ribozyme fitness (log ratio) |
| --- | --- |
| U53G | -1.68 |
| U53C | -0.375 |
| C54U U82G | 0.0533 |
| U55A G84A G143A | -0.776 |
| C54U U78G C96G A113U | ≤ -4.2 |
| C54A G70C G88A C93G U134A U146A | ≤ -4.2 |
| U53G G74A C114G | ≤ -4.2 |
| C54A U56G U78G U82G C114A U144C | ≤ -4.2 |
| U55A G81A G86A U109G A150G | ≤ -4.2 |
| U55A C79U | -2.74 |
| C54A U101G C108U A115U G117U C129U G133A | ≤ -4.2 |
| C54A A73U C87U | -3.49 |
| C54U G81A G86U C105A A147U | -4.16 |
| C54A G94U C105U | -2.47 |
| C54G C95G A107U C108G G143A U145C | ≤ -4.2 |
| U55A G94U G117U C131A G136A | ≤ -4.2 |
| U55G G84A C118U | -0.685 |
| U53G G68A | ≤ -4.2 |
| U53G C54A | -2.07 |
| U55C A98G A113U A142G | -2.98 |
| U55G C93A A98U A142U | -3.92 |
| U55C A119G U145A | -0.113 |
| U53G U61A | -3.21 |
| U55A A107C | ≤ -4.2 |

| Variant | polymerase ribozyme fitness (log ratio) |
| --- | --- |
| U55A U148C | -1.05 |
| C54U G86C | -3.47 |
| U53A U144A | -1.56 |
| U55A C79U G83A C93A A97C A138U | ≤ -4.2 |
| C54G A97G | -0.818 |
| C54U C95U G133C | -2.19 |
| U55A G126C | 1.42 |
| U55A G126A | -1.02 |
| C54U C93U C105G G126C | -2.01 |
| C54U C85G C93U A97C A137U U139G | ≤ -4.2 |
| U55A C85U C103U | -0.7 |
| U55A G59C C103U U104G | -3.29 |
| U55C C85A A91C G126A | -4.06 |
| C54A U55A | -1.91 |
| C54U U148C | -1.84 |
| C54U U144A | -0.258 |
| U55A G84U A113C | -3.62 |
| U53A U61A A106U C129U | -3.27 |
| U55A G67C C85A G86U G124U | ≤ -4.2 |
| U55A A73U C99U U145C | ≤ -4.2 |
| C54U G92C A121U | -0.244 |
| U55G G59A G83A A98C C116G U127G | -4.04 |
| C54U A89C C131U | 0.237 |
| C54G G83U G141U | -1.56 |

| Variant | polymerase ribozyme fitness (log ratio) |
| --- | --- |
| U55A C57U G81A G84A | -0.555 |
| C54G A89C C123G C131A | ≤ -4.2 |
| U55A U61C G94U | ≤ -4.2 |
| U55A G88U | -4.14 |
| U53G C63U G80C G81C G84U G100U | ≤ -4.2 |
| U55C G59A C96A | -3.02 |
| U55G G68U | -3.91 |
| U55G G68A | -3.69 |
| U55A A98U | -0.0691 |
| C54G C76A C93G C123U | ≤ -4.2 |
| C54U C103A | -2.22 |
| U53C C57G U61A G124A G128U | -4.14 |
| C54A A121U G141C | -1.65 |
| U55A C63U A142U | -0.552 |
| C54G A73G C79A U82G C87U A122U G141C | ≤ -4.2 |
| C54A G86U A110C | ≤ -4.2 |
| C54U G92A | -3 |
| C54U G92U | -0.757 |
| C54U G59C G83A G117U | -0.252 |
| U55A C85G C114A A142C U151A | -4.19 |
| U55A G71U G117A | -3.07 |
| C54G C76A C85G | -2.78 |
| C54U C87U C105A | -2.09 |
| C54G G92A C132A | ≤ -4.2 |

| Variant | polymerase ribozyme fitness (log ratio) |
| --- | --- |
| U55G C108G | ≤ -4.2 |
| C54G A147C | -1.47 |
| U53G C103A C105G U130A | ≤ -4.2 |
| U55G G86U A89G A121C A147U | -3 |
| C54G C108U | -4.19 |
| C54G U146G | -2.99 |
| U53C C57A C95U A98G U104A | -0.528 |
| U53A U102G G126A | -3.76 |
| U55G G83A A115C C123U G136U | -2.92 |
| U55A C96G G143A | -2.1 |
| U53G G59C U61A G88C G94U | ≤ -4.2 |
| U55A A89C | -0.409 |
| U55A A89G | -1.16 |
| U55G C69U | -2.89 |
| C54A G92A | ≤ -4.2 |
| U55A A64G U135A | ≤ -4.2 |
| U55G G67C U78G G83U C93A U102A A121C | ≤ -4.2 |
| C54U U56A G58A C85U C95A | -1.2 |
| U55G C118U | -1.23 |
| C54A C96G A97C G143C | ≤ -4.2 |
| U55A C76A | -0.81 |
| U55A G71A G81C C95G C125U | ≤ -4.2 |
| C54U A60C C75A A91U C96U A97G A107C G136A A137U | ≤ -4.2 |
| U53G G58C C95G A122U | ≤ -4.2 |

| Variant | polymerase ribozyme fitness (log ratio) |
| --- | --- |
| C54U A60C C99U | -3.17 |
| U53G A107C | ≤ -4.2 |
| U53A U56G A115U A120G | -2.77 |
| U53G C87A A120U A142U U146A | ≤ -4.2 |
| U55A C95A G143A U144C | -3.04 |
| C54A G59U A60C G83A C116A | -2.11 |
| U55A A91G | -2.86 |
| U55G G58C | -0.558 |
| U55A C76A A115G A121C | -1.09 |
| C54A U102A | -2.71 |
| U53G G58A | -1.53 |
| C54A C75U C93U | -2.29 |
| C54U C93U A98G | -1.41 |
| C54U G59A G70C | -2.48 |
| C54A A91G U104G U127A G152A | ≤ -4.2 |
| U55A C85U | -0.644 |
| U55A A60U U101G | -0.433 |
| C54U C79U A115G A120G A122U G141U | ≤ -4.2 |
| U55A A115U U127G U135A U145A | -1.32 |
| U53C G58C C93U C96G G140A | -4.1 |
| U55G A91U A106G G117U | -4.18 |
| C54G C76U U77C C87A G126U | ≤ -4.2 |
| C54G G133C | -2.55 |
